Among the data in patent US7456001B2, “Lipoxygenase” (Novozymes A/S, priority 2000, dated 2008) are kcat and Km values, retold here.

As a reminder, the Km is the substrate concentration at which the rate is half of its maximum.

The target in one data set is lipoxygenase (Gaeumannomyces tritici, UniProt Q8X150). The experiment in a line: Determination of substrate specificity (Michaelis-Menten kinetics, hydroperoxide formation at 234 nm). The note with it: lipoxygenase produced as in Example 4, standard assay, 25° C., pH 7.0.
Sequence of lipoxygenase (Q8X150 17-618): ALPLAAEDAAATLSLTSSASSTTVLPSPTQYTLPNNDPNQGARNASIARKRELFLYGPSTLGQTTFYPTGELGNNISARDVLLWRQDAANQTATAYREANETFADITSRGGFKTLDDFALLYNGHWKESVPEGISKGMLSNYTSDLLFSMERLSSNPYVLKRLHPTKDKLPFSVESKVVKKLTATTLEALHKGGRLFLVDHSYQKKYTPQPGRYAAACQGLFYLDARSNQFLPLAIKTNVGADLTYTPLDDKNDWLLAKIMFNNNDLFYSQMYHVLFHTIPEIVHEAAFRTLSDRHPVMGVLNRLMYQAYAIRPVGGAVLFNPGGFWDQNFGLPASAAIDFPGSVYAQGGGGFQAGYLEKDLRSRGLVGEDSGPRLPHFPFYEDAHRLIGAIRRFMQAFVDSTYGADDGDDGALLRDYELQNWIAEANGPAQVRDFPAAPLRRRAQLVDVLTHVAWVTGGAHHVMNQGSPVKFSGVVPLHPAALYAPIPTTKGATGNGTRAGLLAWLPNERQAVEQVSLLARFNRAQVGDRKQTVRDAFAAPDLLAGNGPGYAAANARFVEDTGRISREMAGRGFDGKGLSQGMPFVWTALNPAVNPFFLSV
Data set [1] deals with CCCCC/C=C\C/C=C\C/C=C\C/C=C\CCCC(=O)O. The experiment in a line: purified protein, by the assay type. The note with it: other: lipoxygenase produced as in Example 4, standard assay, 25° C., pH 7.0.
The test system of data set [2] is CCCCC/C=C\C/C=C\CCCCCCCCO
Nature of the data set: purified protein, by the assay type. The note with it: other: lipoxygenase produced as in Example 4, standard assay, 25° C., pH 7.0.

For data set [3], the system named is CCCCC/C=C\C/C=C\CCCCCCCC(=O)OC. The experiment in a line: purified protein, by the assay type. The note with it: other: lipoxygenase produced as in Example 4, standard assay, 25° C., pH 7.0.

Consider `CCCCC/C=C\C/C=C\CCCCCCCC(=O)O` [Linoleic acid], for which the kcat at lipoxygenase (kcat (or Vmax)) came out at 5.63 micro-mol/min/mg. The Km on lipoxygenase turned out to be 6.8 µM.

With lipoxygenase (Gaeumannomyces tritici), the Km stood at 17.5 µM in data set [1], 3.4 µM in data set [2] and 164 µM in data set [3].
